# Legend:
# [1] = target: Recombinant (His)6-tagged TfR1 ectodomain (human) (UniProt P02786); test: SPR (Biacore 2000), K'd, TfR-(His)6 captured at low density (120 RU) on anti-(His)6 chip
# [2] = target: Recombinant (His)6-tagged TfR1 ectodomain (human) (UniProt P02786); test: SPR (Biacore 2000), K'd, TfR-(His)6 captured at high density (1650 RU) on anti-(His)6 chip
# [3] = target: transferrin receptor (TfR, CD71) on cells (human) (UniProt P02786); test: cell-based or functional assay
# Sequence of transferrin receptor (TfR, CD71) on cells (human) (P02786 whole entry): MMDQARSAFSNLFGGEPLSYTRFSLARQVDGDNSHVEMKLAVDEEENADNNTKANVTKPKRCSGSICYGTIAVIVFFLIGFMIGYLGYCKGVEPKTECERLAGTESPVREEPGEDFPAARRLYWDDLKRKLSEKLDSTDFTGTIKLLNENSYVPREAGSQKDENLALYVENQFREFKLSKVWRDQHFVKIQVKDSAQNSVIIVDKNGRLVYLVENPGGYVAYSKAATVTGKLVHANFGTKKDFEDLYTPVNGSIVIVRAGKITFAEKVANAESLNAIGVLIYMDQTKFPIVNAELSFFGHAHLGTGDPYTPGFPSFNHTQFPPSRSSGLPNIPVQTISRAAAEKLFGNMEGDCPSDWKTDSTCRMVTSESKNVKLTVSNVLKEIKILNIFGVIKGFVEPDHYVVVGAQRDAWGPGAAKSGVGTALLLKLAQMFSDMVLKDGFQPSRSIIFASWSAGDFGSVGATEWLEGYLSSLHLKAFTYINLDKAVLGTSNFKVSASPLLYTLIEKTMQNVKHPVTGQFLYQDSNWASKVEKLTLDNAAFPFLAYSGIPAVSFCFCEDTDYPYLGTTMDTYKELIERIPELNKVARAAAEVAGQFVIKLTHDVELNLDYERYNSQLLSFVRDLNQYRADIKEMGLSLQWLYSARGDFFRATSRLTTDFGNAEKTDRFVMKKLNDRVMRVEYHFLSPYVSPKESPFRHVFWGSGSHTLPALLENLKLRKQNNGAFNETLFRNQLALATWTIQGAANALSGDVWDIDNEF
# Sequence of Recombinant (His)6-tagged TfR1 ectodomain (human) (P02786 89-760 limits assumed, form in doubt): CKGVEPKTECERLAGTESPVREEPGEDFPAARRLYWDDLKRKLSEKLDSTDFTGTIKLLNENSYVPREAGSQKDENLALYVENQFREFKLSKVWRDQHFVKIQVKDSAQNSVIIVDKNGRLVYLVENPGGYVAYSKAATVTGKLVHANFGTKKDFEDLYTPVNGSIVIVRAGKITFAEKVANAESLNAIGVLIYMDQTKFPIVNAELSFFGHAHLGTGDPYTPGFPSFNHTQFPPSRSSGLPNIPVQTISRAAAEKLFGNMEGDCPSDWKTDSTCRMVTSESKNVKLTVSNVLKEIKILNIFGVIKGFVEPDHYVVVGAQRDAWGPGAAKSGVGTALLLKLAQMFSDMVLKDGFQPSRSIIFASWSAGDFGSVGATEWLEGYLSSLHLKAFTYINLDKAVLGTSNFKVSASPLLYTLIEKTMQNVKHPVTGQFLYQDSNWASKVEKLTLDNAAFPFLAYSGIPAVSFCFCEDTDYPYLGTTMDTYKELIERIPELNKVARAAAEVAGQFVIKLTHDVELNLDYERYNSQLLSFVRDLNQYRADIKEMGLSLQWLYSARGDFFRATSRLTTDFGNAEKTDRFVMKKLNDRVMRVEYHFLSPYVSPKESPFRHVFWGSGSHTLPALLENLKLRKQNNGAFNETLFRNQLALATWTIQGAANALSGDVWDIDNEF
substance,measurement,setting,value
anti-human TfR (CD71) monoclonal antibody A24,Kd,[1],2.69 nM
same,Kd,[2],1.02 nM
same,down-regulation of TfR expression in ex vivo cell cultures from chronic and acute forms of ATL,[3],> 75%
same,down-regulation of TfR expression on HTLV-1 infected cells from acute ATL donors in IL-15 or IL-2/IL-15 conditioned medium,[3],> 65%
